The source of these data is the supplement of paper PMC9170038.

The series relates to MS2 coat protein. As to the kind of experiment: apparent KD of MS2 coat protein; designed switch direction (-1 OFF switch, 1 ON switch): 1; higher = weaker reporter binding. In a few lines: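 Three titration conditions were used: no input, 200 uM small-molecule ligand, and an oligonucleotide input. In each, SNAP-549-labelled MS2 coat protein was raised from 0.7 or 1.5 nM, doubling, to 3 µM over designed RNA switches transcribed on Illumina chips by stalled E. coli RNA polymerase. Curve fits of normalised cluster fluorescence gave values whose per-design median over clusters is the apparent KD.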

[1] abbreviates: input ligand: microRNA oligo, concentration not stated.
The mark [2] stands for this setting: Eterna round: R95, input ligand: FMN 200 uM.
Where [3] appears, read: Eterna round: R95, input ligand: microRNA oligo, concentration not stated.
The mark [4] stands for this setting: Eterna round: R95, input ligand: none.

For “AUUAAUUAAUUAAUACAUGAGGAUCACCCAUGUAAUAAGAUCUAGGAUAUCAGCUCGAAUAGAGCUGAGAAGGAGAUCACAUGU [SSNG3/17-A1] (Eterna round: R96, puzzle: Same State NG 3)”, under setting [1], the “apparent KD of MS2 coat protein” value was 31.1 nM.

“UGACACACGGCAGGAUAUCGAUUCCAAAGGAAUCGAGAAGGGCCUCAUGUCGUGGAAACGUGACAUGAGGAUCACCCAUGUUGC [Omei SS(NG)1 Cv15] (Eterna round: R96, puzzle: Same State NG 1)”: the “apparent KD of MS2 coat protein” value reads like this: (input ligand: FMN 200 uM) 222 nM; under setting [1], 15.8 nM; (input ligand: none) 96 nM.

“AGAAGACAUGAGGAUCACCCAUGUACAUAAUGAGGAGAAUGGGAGGAUAUGUAGAGAGAGAGGGAGCAGAAGGUCCAGUAUGAA [Default title] (Eterna round: R96, puzzle: Same State NG 3)”: the “apparent KD of MS2 coat protein” value (input ligand: FMN 200 uM) stood at 98.9 nM, the “apparent KD of MS2 coat protein” value under setting [1] is 99.2 nM and the “apparent KD of MS2 coat protein” value (input ligand: none) was 148 nM.

Turning to “AGGUGGUGUGGAAAGGAUAUACUGUUGAGGACAUGAGGAUCACCCAUGUGGUAGAGGACGUAAGGGUAGAAGGUUCGGGAUUGGU [JR_SS@_Sub021] (puzzle: Same State 2)”, the “apparent KD of MS2 coat protein” value was found to be 46.2 nM under setting [2], 50.2 nM under setting [3] and 75.4 nM under setting [4].

In the case of “CUUAUUAAUGCAGGAUAUGAUUAACAUGAGGAUCACCCAUGUGGUGUUGUGAGUAAGGAGAGUGAUCAGAAGGGCAUUUUUUUU [JMF's solution 41] (Eterna round: R96, puzzle: Same State NG 2)”, the “apparent KD of MS2 coat protein” value is, setting by setting: (input ligand: FMN 200 uM) 711 nM; under setting [1], 410 nM; (input ligand: none) 656 nM.

“GCAACGUGAUUAGGAUAUGCGAAACCCAUGGAAACUACACAUGAGGAUCACCCAUGUCCAUAGCCGCAGAAGGGAUCCGGAGCA [Eternabot solution 6] (Eterna round: R96, puzzle: Same State NG 2)”: the “apparent KD of MS2 coat protein” value by setting is: (input ligand: FMN 200 uM) 32.1 nM; under setting [1], 90.3 nM; (input ligand: none) 147 nM.

Take “GGAGCCGGCCUAGGAUAUUUCAUAAUUAAACAUGAGGAUCACCCAUGUAGGCCAGAAGGCCUUGGGAAGAAGGAGGUCGGCUCC [Loop Effect - U26,U27] (Eterna round: R96, puzzle: Same State NG 2)”: the “apparent KD of MS2 coat protein” value runs as follows: (input ligand: FMN 200 uM) 12.5 nM; under setting [1], 39 nM; (input ligand: none) 82.3 nM.

Regarding “CUAUCUACAGGUUGCAGUGCUCGUCUUAUACAUGAGGAUCACCCAUGUUAUAGCCCGGUGCUUGCGCUGGGCUGAUU [JL ViennaUCT Tearor mod 2] (puzzle: Sensor for hsa-mir-208a)”, the “apparent KD of MS2 coat protein” value by setting is: under setting [2], 36.4 nM; under setting [3], 16.4 nM; under setting [4], 43 nM.

As for “CUUUAUCACUAUACAUGAGGAUCACCCAUGUUAUCAUCAUGAGAGGAUAUCGUAUUUGGAUUUUUCGAGAAGGCUCUAUUGUAU [JR_SSNG3_Sub077] (Eterna round: R96, puzzle: Same State NG 3)”, under setting [1], the “apparent KD of MS2 coat protein” value was found to be 158 nM.

As for “GGUCCAGCCUGAGCUGGACAAAGGCAUGUACAUGAGGAUCACCCAUGUCAUGUACAAGCUUUUUGCUCGUCUUAAAA [JL mod - D87 - 3] (puzzle: Sensor for hsa-mir-208a)”, the “apparent KD of MS2 coat protein” value runs as follows: under setting [2], 168 nM; under setting [3], 13.8 nM; under setting [4], 220 nM.

Consider “AGUCCAGCCUGAGCUGGACAAAAGCAUGUACAUGAGGAUCACCCAUGUUCAUGUACAAGCUUUUUGCUCGUCUUACA [salish99_208a_r3_076] (puzzle: Sensor for hsa-mir-208a)”, for which the “apparent KD of MS2 coat protein” value turned out to be 467 nM under setting [2], 14.4 nM under setting [3] and 483 nM under setting [4].

Regarding “AGAGGAGGAGCAGGAUAUUCGAAGAAGAACGUGGAAGAAGGGUUCAUGCGAUGACAUGAGGAUCACCCAUGUACCGCGCGAGGA [AK SSNG1-V2-11] (Eterna round: R96, puzzle: Same State NG 1)”, the “apparent KD of MS2 coat protein” value is 50 nM (input ligand: FMN 200 uM), 42.9 nM under setting [1] and 67.6 nM (input ligand: none).

With “GGAGAACAUGAGGAUCACCCAUGUGAGAGGGAUGUAGGAUAUGUGAGGAGUAAAGGAGGGACAGAAGGACAGAGAU [JR_SS!_Sub068] (Eterna round: R96, puzzle: Same State 1)”, the “apparent KD of MS2 coat protein” value under setting [1] was found to be 30.4 nM.

In the case of “GCGAAGAGGUAAGGAUAUGCAUGGCGGAGACAUGAGGAUCACCCAUGUUGGAGACGAAAUCUAGGGUAGAAGGUACCGGGAAGC [ssng2 v2 b] (Eterna round: R96, puzzle: Same State NG 2)”, the “apparent KD of MS2 coat protein” value is, setting by setting: (input ligand: FMN 200 uM) 75.4 nM; under setting [1], 70.2 nM; (input ligand: none) 110 nM.

For “AGUAUACAUGAGGAUCACCCAUGUCAGUAACUGACAGGAUAUGCGUUGCAUCACUGUAAUGCAGAAGGGUCUUGUA [Same State 1 - Mod of JMF's solution 1] (Eterna round: R96, puzzle: Same State 1)”, the “apparent KD of MS2 coat protein” value (input ligand: FMN 200 uM) was found to be 138 nM, the “apparent KD of MS2 coat protein” value under setting [1] was 324 nM and the “apparent KD of MS2 coat protein” value (input ligand: none) was 379 nM.

Turning to “GACAAUCUAUCUGAGGAUAUCAUGAAAAAAACAUGAGGAUCACCCAUGUGCAGGAAAACUGCAUAUGAGAAGGCAGAUAGAUUGC [salish99_SS2_r3_012] (puzzle: Same State 2)”, the “apparent KD of MS2 coat protein” value turned out to be 34.1 nM under setting [2], 443 nM under setting [3] and 781 nM under setting [4].

As to “UGAAUAGUUACAGGAUAUGAGCCGUAAAUUGGGUCAGAAGGGUGGGUGUUCUGCGCUGUGUGUUACAUGAGGAUCACCCAUGUU [SameState NG1 #31] (Eterna round: R96, puzzle: Same State NG 1)”, the “apparent KD of MS2 coat protein” value (input ligand: FMN 200 uM) is 162 nM, the “apparent KD of MS2 coat protein” value under setting [1] amounted to 34.9 nM and the “apparent KD of MS2 coat protein” value (input ligand: none) turned out to be 63.4 nM.

As to “CUGAGCAAGCAAGGAUAUCACGUCGAUUAGACGUGAGAAGGUGCUCCUUACAUGAGGAUCACCCAUGUAUAACAUGAAGCUCAG [SSNG1/10-A2] (Eterna round: R96, puzzle: Same State NG 1)”, the “apparent KD of MS2 coat protein” value by setting is: (input ligand: FMN 200 uM) 190 nM; under setting [1], 902 nM; (input ligand: none) 1090 nM.

Regarding “ACAUGAGACGGAGGAUAUCUUGUACCUACAUGUGACAUGAGGAUCACCCAUGUGGUAAGUAUGAUAGAGAAGGCCGAGAUAUGU [Equivalance 57 - Jieux - Same State NG 2] (Eterna round: R96, puzzle: Same State NG 2)”, the “apparent KD of MS2 coat protein” value (input ligand: FMN 200 uM) was 16.1 nM, the “apparent KD of MS2 coat protein” value under setting [1] came to 15 nM and the “apparent KD of MS2 coat protein” value (input ligand: none) was found to be 25.4 nM.

As for “GACAAUCUAUCUCAGGAUAUCAUGUCAAAGACAUGAGGAUCACCCAUGUACCAGGAAACUGGUUAUGAGAAGGGAGAUAGAUUGA [Mat - Same State 2 - Mod - D26] (puzzle: Same State 2)”, the “apparent KD of MS2 coat protein” value reads like this: under setting [2], 264 nM; under setting [3], 142 nM; under setting [4], 427 nM.

“UGGAUCUAGGCUUGCCUGGGUCCAUGCUGACAUGAGGAUCACCCAUGUGCAUCCUACAAGCUUUUUGCUUGUCUGCC (puzzle: Sensor for hsa-mir-208a)”: the “apparent KD of MS2 coat protein” value by setting is: under setting [2], 146 nM; under setting [3], 122 nM; under setting [4], 93.7 nM.

“UUGAAGAAUUAAGGAUAUUGAUUACAUAUGUUAAACAUGAGGAUCACCCAUGUGGGUUGCGGUAUCGAGAAGGUAAAUUACUAG [Mat - same State NG 2 - JL mod - D76] (Eterna round: R96, puzzle: Same State NG 2)”: the “apparent KD of MS2 coat protein” value was determined as 63.3 nM (input ligand: FMN 200 uM), 74.1 nM under setting [1] and 87.3 nM (input ligand: none).

With “GAGGGCGAAAGCGACAUGAGGAUCACCCAUGUCCUCGGAGGGCAGGAUAUCCGGCAAAAGCCGAAGGAGAAGGGUCGAAAAGAA [AK SSNG3-V2-38.1] (Eterna round: R96, puzzle: Same State NG 3)”, the “apparent KD of MS2 coat protein” value by setting is: (input ligand: FMN 200 uM) 66.4 nM; under setting [1], 26 nM; (input ligand: none) 41.1 nM.

In the case of “GGUGCGAAUAAAGCCUACAUGAGGAUCACCCAUGUAUGUAGGCAGGAUAUCGUUUGCAAAGCAAACGAGAAGGGCUGACGCACC [Mat - Same State NG 3 - JL Mod - D49] (Eterna round: R96, puzzle: Same State NG 3)”, the “apparent KD of MS2 coat protein” value is 29.3 nM (input ligand: FMN 200 uM), 45.7 nM under setting [1] and 62.4 nM (input ligand: none).

For the sequence “CCCUCAUGCAGGCUAACACGCUUGUUUUAACAUGAGGAUCACCCAUGUACGUCGCCGUUUCGUGCGGGACGCGCAGA [Anuscear] (Eterna round: R96, puzzle: Sensor for hsa-mir-208a)”, the “apparent KD of MS2 coat protein” value reads like this: (input ligand: FMN 200 uM) 363 nM; under setting [1], 229 nM; (input ligand: none) 169 nM.

As for “GGCAAUCGCAUUCGAUUGCCUGAGCAUGUACAUGAGGAUCACCCAUGUCAUGUACAGGCUUUUUGCUCGUACUUAUA (puzzle: Sensor for hsa-mir-208a)”, the “apparent KD of MS2 coat protein” value is 91.6 nM under setting [2], 14.9 nM under setting [3] and 135 nM under setting [4].

Turning to “GCAGGACGAUAAUAUAACUUCACAUGAGGAUCACCCAUGUCUCAGGAUAUGGAUCCUAAUUGGAUCCAGAAGGGAGCGUCCUGC [Fiskers NG3ss - 34] (Eterna round: R96, puzzle: Same State NG 3)”, the “apparent KD of MS2 coat protein” value (input ligand: FMN 200 uM) was 14.5 nM, the “apparent KD of MS2 coat protein” value under setting [1] turned out to be 25.9 nM and the “apparent KD of MS2 coat protein” value (input ligand: none) came to 35.1 nM.

On to “UUUGGGUGGCUGGAGGAUAUUCGAGUGGUAACAUGAGGAUCACCCAUGUGUCGCGCGGUACACGAGGAGAAGGCUGGCGGCCGUU (puzzle: Same State 2)”, for which the “apparent KD of MS2 coat protein” value under setting [3] is 41.7 nM.
